Article PMC5900569

Each sequence was assayed on cTSN (Tudor staphylococcal nuclease) (Caenorhabditis elegans) (assay: filter binding). Details: 50 mM HEPES pH 7.0, 250 mM NaCl, 5 mM beta-mercaptoethanol, 2 mM EDTA, 30 min, room temperature; cTSN 0-2 uM.

Going from “ACUGGACAAAUACUCCGAGG / CCUCGGAGUAUUUGUCCAGU [dsRNA 20 bp]” to ACUGGACAAAUACUCCGAGG [ssRNA 20 nt], the Kd rises from 393 nM to 767 nM (2-fold).

Going from “CAGUCACCCAUAAAGUAGAAAGCACUACUGUGGGUAGUGUUUCCUACUUUAUGGAUGAGUG [pre-miR142]” to “CAGUCACCCAUAAAGUAGAAAGCACUAC / GUAGUGUUUCCUACUUUAUGGAUGAGUG [pre-miR142Δloop]”, the Kd rises from 136 nM to 236 nM (1.7-fold). The first binds more tightly here.

Same assay, conditions: inosine (A-to-I edited, positions in Figure 3); 50 mM HEPES pH 7.0, 250 mM NaCl, 5 mM beta-mercaptoethanol, 2 mM EDTA, 30 min, room temperature; cTSN 0-2 uM

“CAGUCACCCAUAAAGUAGAAAGCACUAC / GUAGUGUUUCCUACUUUAUGGAUGAGUG [pre-miR142Δloop-AtoI]” and “CAGUCACCCAUAAAGUAGAAAGCACUACUGUGGGUAGUGUUUCCUACUUUAUGGAUGAGUG [pre-miR142-AtoI]” are within 1.5-fold of each other in Kd: 68.3 nM for the first, 74.6 nM for the second.
